Reference: patent US8685665 (CHEMO SERO THERAPEUTIC RESEARCH INSTITUTE, dated 2014)

T1: FRETS-VWF73, P04275
T1 chain: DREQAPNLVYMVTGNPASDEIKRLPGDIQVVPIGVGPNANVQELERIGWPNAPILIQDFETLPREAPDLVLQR


Target: T1, FRETS-VWF73, P04275
Test: not given

Binder	cleaving activity to FRETS-VWF73, relative activity against wild type W688X
ADAMTS-13W688X mutant R568A (protein) AAGGILHLELLVAVGPDVFQAHQEDTERYVLTNLNIGAELLRDPSLGAQFRVHLVKMVILTEPEGAPNITANLTSSLLSVCGWSQTINPEDDTDPGHADLVLYITRFDLELPDGNRQVRGVTQLGGACSPTWSCLITEDTGFDLGVTIAHEIGHSFGLEHDGAPGSGCGPSGHVMASDGAAPRAGLAWSPCSRRQLLSLLSAGRARCVWDPPRPQPGSAGHPPDAQPGLYYSANEQCRVAFGPKAVACTFAREHLDMCQALSCHTDPLDQSSCSRLLVPLLDGTECGVEKWCSKGRCRSLVELTPIAAVHGRWSSWGPRSPCSRSCGGGVVTRRRQCNNPRPAFGGRACVGADLQAEMCNTQACEKTQLEFMSQQCARTDGQPLRSSPGGASFYHWGAAVPHSQGDALCRHMCRAIGESFIMKRGDSFLDGTRCMPSGPREDGTLSLCVSGSCRTFGCDGRMDSQQVWDRCQVCGGDNSTCSPRKGSFTAGRAAEYVTFLTVTPNLTSVYIANHRPLFTHLAVRIGGRYVVAGKMSISPNTTYPSLLEDGRVEYRVALTEDRLPRLEEIRIWGPLQEDADIQVYRRYGEEYGNLTRPDITFTYFQPKPRQAWVW	the elevated enzymatic activity was observed
ADAMTS-13W688X mutant R326A (protein) AAGGILHLELLVAVGPDVFQAHQEDTERYVLTNLNIGAELLRDPSLGAQFRVHLVKMVILTEPEGAPNITANLTSSLLSVCGWSQTINPEDDTDPGHADLVLYITRFDLELPDGNRQVRGVTQLGGACSPTWSCLITEDTGFDLGVTIAHEIGHSFGLEHDGAPGSGCGPSGHVMASDGAAPRAGLAWSPCSRRQLLSLLSAGRARCVWDPPRPQPGSAGHPPDAQPGLYYSANEQCRVAFGPKAVACTFAAEHLDMCQALSCHTDPLDQSSCSRLLVPLLDGTECGVEKWCSKGRCRSLVELTPIAAVHGRWSSWGPRSPCSRSCGGGVVTRRRQCNNPRPAFGGRACVGADLQAEMCNTQACEKTQLEFMSQQCARTDGQPLRSSPGGASFYHWGAAVPHSQGDALCRHMCRAIGESFIMKRGDSFLDGTRCMPSGPREDGTLSLCVSGSCRTFGCDGRMDSQQVWDRCQVCGGDNSTCSPRKGSFTAGRAREYVTFLTVTPNLTSVYIANHRPLFTHLAVRIGGRYVVAGKMSISPNTTYPSLLEDGRVEYRVALTEDRLPRLEEIRIWGPLQEDADIQVYRRYGEEYGNLTRPDITFTYFQPKPRQAWVW	the elevated enzymatic activity was observed
ADAMTS-13W688X mutant R659A (protein) AAGGILHLELLVAVGPDVFQAHQEDTERYVLTNLNIGAELLRDPSLGAQFRVHLVKMVILTEPEGAPNITANLTSSLLSVCGWSQTINPEDDTDPGHADLVLYITRFDLELPDGNRQVRGVTQLGGACSPTWSCLITEDTGFDLGVTIAHEIGHSFGLEHDGAPGSGCGPSGHVMASDGAAPRAGLAWSPCSRRQLLSLLSAGRARCVWDPPRPQPGSAGHPPDAQPGLYYSANEQCRVAFGPKAVACTFAREHLDMCQALSCHTDPLDQSSCSRLLVPLLDGTECGVEKWCSKGRCRSLVELTPIAAVHGRWSSWGPRSPCSRSCGGGVVTRRRQCNNPRPAFGGRACVGADLQAEMCNTQACEKTQLEFMSQQCARTDGQPLRSSPGGASFYHWGAAVPHSQGDALCRHMCRAIGESFIMKRGDSFLDGTRCMPSGPREDGTLSLCVSGSCRTFGCDGRMDSQQVWDRCQVCGGDNSTCSPRKGSFTAGRAREYVTFLTVTPNLTSVYIANHRPLFTHLAVRIGGRYVVAGKMSISPNTTYPSLLEDGRVEYRVALTEDRLPRLEEIRIWGPLQEDADIQVYARYGEEYGNLTRPDITFTYFQPKPRQAWVW	the elevated enzymatic activity was observed
ADAMTS-13W688X mutant R370A (protein) AAGGILHLELLVAVGPDVFQAHQEDTERYVLTNLNIGAELLRDPSLGAQFRVHLVKMVILTEPEGAPNITANLTSSLLSVCGWSQTINPEDDTDPGHADLVLYITRFDLELPDGNRQVRGVTQLGGACSPTWSCLITEDTGFDLGVTIAHEIGHSFGLEHDGAPGSGCGPSGHVMASDGAAPRAGLAWSPCSRRQLLSLLSAGRARCVWDPPRPQPGSAGHPPDAQPGLYYSANEQCRVAFGPKAVACTFAREHLDMCQALSCHTDPLDQSSCSRLLVPLLDGTECGVEKWCSKGACRSLVELTPIAAVHGRWSSWGPRSPCSRSCGGGVVTRRRQCNNPRPAFGGRACVGADLQAEMCNTQACEKTQLEFMSQQCARTDGQPLRSSPGGASFYHWGAAVPHSQGDALCRHMCRAIGESFIMKRGDSFLDGTRCMPSGPREDGTLSLCVSGSCRTFGCDGRMDSQQVWDRCQVCGGDNSTCSPRKGSFTAGRAREYVTFLTVTPNLTSVYIANHRPLFTHLAVRIGGRYVVAGKMSISPNTTYPSLLEDGRVEYRVALTEDRLPRLEEIRIWGPLQEDADIQVYRRYGEEYGNLTRPDITFTYFQPKPRQAWVW	the elevated enzymatic activity was observed

Target: T2, von Willebrand factor derived from human plasma (human, UniProt P04275 764-2813)
T2 construct: mature; also called VWF; natural substrate VWF
Test: ELISA, plasma VWF immobilized on plate, relative to wild type W688X
Experimental: Each of the purified mutants of Example 3 was evaluated for their binding ability to VWF derived from human plasma immobilized on ELISA plate as described in Non-patent reference 8. The concentration was normalized by sandwich ELISA using the anti-human ADAMTS-13 rabbit polyclonal antibody and an HRP labeled form of the anti-FLAGM2 murine monoclonal antibody (SIGMA CORPORATION) as described above and the VWF binding ability per unit concentration was quantified. Finally, the mutants were evaluated for a relative activity as compared to the specific activity of wild type W688X with no alanine substitution, the specific activity of which is 1.

binding result	Binder
binds	ADAMTS-13W688X mutant D343A (enzyme, human, UniProt Q76LX8 75-688, looked up, Disintegrin-like domain mutant; also called D343(10); not shown: C-terminal FLAG tag) AAGGILHLELLVAVGPDVFQAHQEDTERYVLTNLNIGAELLRDPSLGAQFRVHLVKMVILTEPEGAPNITANLTSSLLSVCGWSQTINPEDDTDPGHADLVLYITRFDLELPDGNRQVRGVTQLGGACSPTWSCLITEDTGFDLGVTIAHEIGHSFGLEHDGAPGSGCGPSGHVMASDGAAPRAGLAWSPCSRRQLLSLLSAGRARCVWDPPRPQPGSAGHPPDAQPGLYYSANEQCRVAFGPKAVACTFAREHLDMCQALSCHTDPLAQSSCSRLLVPLLDGTECGVEKWCSKGRCRSLVELTPIAAVHGRWSSWGPRSPCSRSCGGGVVTRRRQCNNPRPAFGGRACVGADLQAEMCNTQACEKTQLEFMSQQCARTDGQPLRSSPGGASFYHWGAAVPHSQGDALCRHMCRAIGESFIMKRGDSFLDGTRCMPSGPREDGTLSLCVSGSCRTFGCDGRMDSQQVWDRCQVCGGDNSTCSPRKGSFTAGRAREYVTFLTVTPNLTSVYIANHRPLFTHLAVRIGGRYVVAGKMSISPNTTYPSLLEDGRVEYRVALTEDRLPRLEEIRIWGPLQEDADIQVYRRYGEEYGNLTRPDITFTYFQPKPRQAWVW
binds	ADAMTS-13W688X mutant R488A (enzyme, human, UniProt Q76LX8 75-688, looked up, Cysteine-rich domain mutant; also called R488(26); not shown: C-terminal FLAG tag) AAGGILHLELLVAVGPDVFQAHQEDTERYVLTNLNIGAELLRDPSLGAQFRVHLVKMVILTEPEGAPNITANLTSSLLSVCGWSQTINPEDDTDPGHADLVLYITRFDLELPDGNRQVRGVTQLGGACSPTWSCLITEDTGFDLGVTIAHEIGHSFGLEHDGAPGSGCGPSGHVMASDGAAPRAGLAWSPCSRRQLLSLLSAGRARCVWDPPRPQPGSAGHPPDAQPGLYYSANEQCRVAFGPKAVACTFAREHLDMCQALSCHTDPLDQSSCSRLLVPLLDGTECGVEKWCSKGRCRSLVELTPIAAVHGRWSSWGPRSPCSRSCGGGVVTRRRQCNNPRPAFGGRACVGADLQAEMCNTQACEKTQLEFMSQQCARTDGQPLRSSPGGASFYHWGAAVPHSQGDALCRHMCAAIGESFIMKRGDSFLDGTRCMPSGPREDGTLSLCVSGSCRTFGCDGRMDSQQVWDRCQVCGGDNSTCSPRKGSFTAGRAREYVTFLTVTPNLTSVYIANHRPLFTHLAVRIGGRYVVAGKMSISPNTTYPSLLEDGRVEYRVALTEDRLPRLEEIRIWGPLQEDADIQVYRRYGEEYGNLTRPDITFTYFQPKPRQAWVW
binds	ADAMTS-13W688X mutant D480A (enzyme, human, UniProt Q76LX8 75-688, looked up, Cysteine-rich domain mutant; also called D480(24); not shown: C-terminal FLAG tag) AAGGILHLELLVAVGPDVFQAHQEDTERYVLTNLNIGAELLRDPSLGAQFRVHLVKMVILTEPEGAPNITANLTSSLLSVCGWSQTINPEDDTDPGHADLVLYITRFDLELPDGNRQVRGVTQLGGACSPTWSCLITEDTGFDLGVTIAHEIGHSFGLEHDGAPGSGCGPSGHVMASDGAAPRAGLAWSPCSRRQLLSLLSAGRARCVWDPPRPQPGSAGHPPDAQPGLYYSANEQCRVAFGPKAVACTFAREHLDMCQALSCHTDPLDQSSCSRLLVPLLDGTECGVEKWCSKGRCRSLVELTPIAAVHGRWSSWGPRSPCSRSCGGGVVTRRRQCNNPRPAFGGRACVGADLQAEMCNTQACEKTQLEFMSQQCARTDGQPLRSSPGGASFYHWGAAVPHSQGAALCRHMCRAIGESFIMKRGDSFLDGTRCMPSGPREDGTLSLCVSGSCRTFGCDGRMDSQQVWDRCQVCGGDNSTCSPRKGSFTAGRAREYVTFLTVTPNLTSVYIANHRPLFTHLAVRIGGRYVVAGKMSISPNTTYPSLLEDGRVEYRVALTEDRLPRLEEIRIWGPLQEDADIQVYRRYGEEYGNLTRPDITFTYFQPKPRQAWVW
binds	ADAMTS-13W688X mutant E327A (enzyme, human, UniProt Q76LX8 75-688, looked up, Disintegrin-like domain mutant; also called E327(7); E327 mutant; not shown: C-terminal FLAG tag) AAGGILHLELLVAVGPDVFQAHQEDTERYVLTNLNIGAELLRDPSLGAQFRVHLVKMVILTEPEGAPNITANLTSSLLSVCGWSQTINPEDDTDPGHADLVLYITRFDLELPDGNRQVRGVTQLGGACSPTWSCLITEDTGFDLGVTIAHEIGHSFGLEHDGAPGSGCGPSGHVMASDGAAPRAGLAWSPCSRRQLLSLLSAGRARCVWDPPRPQPGSAGHPPDAQPGLYYSANEQCRVAFGPKAVACTFARAHLDMCQALSCHTDPLDQSSCSRLLVPLLDGTECGVEKWCSKGRCRSLVELTPIAAVHGRWSSWGPRSPCSRSCGGGVVTRRRQCNNPRPAFGGRACVGADLQAEMCNTQACEKTQLEFMSQQCARTDGQPLRSSPGGASFYHWGAAVPHSQGDALCRHMCRAIGESFIMKRGDSFLDGTRCMPSGPREDGTLSLCVSGSCRTFGCDGRMDSQQVWDRCQVCGGDNSTCSPRKGSFTAGRAREYVTFLTVTPNLTSVYIANHRPLFTHLAVRIGGRYVVAGKMSISPNTTYPSLLEDGRVEYRVALTEDRLPRLEEIRIWGPLQEDADIQVYRRYGEEYGNLTRPDITFTYFQPKPRQAWVW
binds	ADAMTS-13W688X mutant R660A (enzyme, human, UniProt Q76LX8 75-688, looked up, Spacer domain mutant; also called R660(68); not shown: C-terminal FLAG tag) AAGGILHLELLVAVGPDVFQAHQEDTERYVLTNLNIGAELLRDPSLGAQFRVHLVKMVILTEPEGAPNITANLTSSLLSVCGWSQTINPEDDTDPGHADLVLYITRFDLELPDGNRQVRGVTQLGGACSPTWSCLITEDTGFDLGVTIAHEIGHSFGLEHDGAPGSGCGPSGHVMASDGAAPRAGLAWSPCSRRQLLSLLSAGRARCVWDPPRPQPGSAGHPPDAQPGLYYSANEQCRVAFGPKAVACTFAREHLDMCQALSCHTDPLDQSSCSRLLVPLLDGTECGVEKWCSKGRCRSLVELTPIAAVHGRWSSWGPRSPCSRSCGGGVVTRRRQCNNPRPAFGGRACVGADLQAEMCNTQACEKTQLEFMSQQCARTDGQPLRSSPGGASFYHWGAAVPHSQGDALCRHMCRAIGESFIMKRGDSFLDGTRCMPSGPREDGTLSLCVSGSCRTFGCDGRMDSQQVWDRCQVCGGDNSTCSPRKGSFTAGRAREYVTFLTVTPNLTSVYIANHRPLFTHLAVRIGGRYVVAGKMSISPNTTYPSLLEDGRVEYRVALTEDRLPRLEEIRIWGPLQEDADIQVYRAYGEEYGNLTRPDITFTYFQPKPRQAWVW
